Drawing on patent publication US20250011430A1, this text covers Kd for one substance.

The assay addresses human B7H3 ECD-His (human) (UniProt Q5ZPR3). The assay can be described thus: ForteBio BLI, antibody on AHQ sensor, 60 nM antigen, 1:1 model. For orientation: BLI is a label-free optical method that tracks binding on a fibre tip over time.

As to Enoblituzumab (antibody), the Kd amounted to 0.773 nM.

In general, Kd refers to the equilibrium constant for the complex coming apart.
